Where no end group is shown, it is not given here. [ ]: non-standard residue; d: D form. pY = N[C@@H](Cc1ccc(OP(=O)(O)O)cc1)C(=O)O
What was measured:
[1] = biological target: [^32 P]reduced carboxyamidomethylated and maleylated-lysozyme (Gallus gallus (Chicken)) (UniProt P00698)
[2] = biological target: reduced carboxyamidomethylated and maleylated-lysozyme (not phosphorylated) (Gallus gallus (Chicken)) (UniProt P00698)
[3] = biological target: T1, D61A activated mutant of SHP-2 (human)
T1 sequence: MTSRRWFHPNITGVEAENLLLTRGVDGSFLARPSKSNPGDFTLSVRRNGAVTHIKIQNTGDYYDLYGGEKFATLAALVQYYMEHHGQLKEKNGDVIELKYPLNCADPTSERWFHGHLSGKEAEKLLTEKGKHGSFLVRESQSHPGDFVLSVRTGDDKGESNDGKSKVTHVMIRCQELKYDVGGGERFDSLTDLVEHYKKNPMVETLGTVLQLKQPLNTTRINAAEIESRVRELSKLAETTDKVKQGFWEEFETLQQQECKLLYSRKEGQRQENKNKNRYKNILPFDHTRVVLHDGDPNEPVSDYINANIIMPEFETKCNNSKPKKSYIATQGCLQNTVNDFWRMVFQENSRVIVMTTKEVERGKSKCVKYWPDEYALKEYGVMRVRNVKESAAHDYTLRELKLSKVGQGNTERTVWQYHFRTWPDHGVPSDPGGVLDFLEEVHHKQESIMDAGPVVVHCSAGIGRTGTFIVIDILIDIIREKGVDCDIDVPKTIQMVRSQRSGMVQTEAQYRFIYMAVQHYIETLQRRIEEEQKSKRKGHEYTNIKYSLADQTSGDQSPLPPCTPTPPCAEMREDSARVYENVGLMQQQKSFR

E76A activated mutant of SHP-2 (enzyme)
phosphatase activity ([32P] phosphate released from [^32 P]RCM-lysozyme) (pmol/min-pmol) [1]: 100

recombinant full length Src kinase (enzyme)
phosphorylation of RCM-lysozyme with [γ-^32 P] ATP [2]: 2000 cpm/pmol

B1: SHPS-1 phosphotyrosine peptide DIT[pY]…[pY]ASIQTS-NH2 (peptide)
peptide: DIT[pY]ADLNLPKGKKPAPQAAEPNNHTE[pY]ASIQTS-NH2
modifications: N-terminus assumed
SMILES: CC[C@H](C)[C@H](NC(=O)[C@H](CO)NC(=O)[C@H](C)NC(=O)[C@H](Cc1ccc(OP(=O)(O)O)cc1)NC(=O)[C@H](CCC(=O)O)NC(=O)[C@@H](NC(=O)[C@H](Cc1c[nH]cn1)NC(=O)[C@H](CC(N)=O)NC(=O)[C@H](CC(N)=O)NC(=O)[C@@H]1CCCN1C(=O)[C@H](CCC(=O)O)NC(=O)[C@H](C)NC(=O)[C@H](C)NC(=O)[C@H](CCC(N)=O)NC(=O)[C@@H]1CCCN1C(=O)[C@H](C)NC(=O)[C@@H]1CCCN1C(=O)[C@H](CCCCN)NC(=O)[C@H](CCCCN)NC(=O)CNC(=O)[C@H](CCCCN)NC(=O)[C@@H]1CCCN1C(=O)[C@H](CC(C)C)NC(=O)[C@H](CC(N)=O)NC(=O)[C@H](CC(C)C)NC(=O)[C@H](CC(=O)O)NC(=O)[C@H](C)NC(=O)[C@H](Cc1ccc(OP(=O)(O)O)cc1)NC(=O)[C@@H](NC(=O)[C@@H](NC(=O)[C@@H](N)CC(=O)O)[C@@H](C)CC)[C@@H](C)O)[C@@H](C)O)C(=O)N[C@@H](CCC(N)=O)C(=O)N[C@H](C(=O)N[C@@H](CO)C(N)=O)[C@@H](C)O
activation of phosphatase activity on [^32 P]RCM-lysozyme by the phosphotyrosine peptide (fold higher than wildtype SHP-2) [3]: 5

From US6156551
